In US20130079278A1 (Novo Nordisk, published 2013):
*1 amine or outer side, *2 acyl side, *3 side chain or, on linkers, in order; H or OH if unused. Where no end group is shown, it is not given here. Side-chain parts run from the residue outwards. The star is where a group is joined. C20 diacid = O=C(O)CCCCCCCCCCCCCCCCCCC(=O)*; C18 diacid = O=C(O)CCCCCCCCCCCCCCCCC(=O)*; γGlu = O=C(O)[C@H](CCC(=O)[*:2])N[*:1]; AEEA = NCCOCCOCC(=O)O

Molecular target: glucagon receptor (human, UniProt P47871 26-477)
Assay: cell-based or functional assay

glucagon receptor, sequence (P47871 26-477): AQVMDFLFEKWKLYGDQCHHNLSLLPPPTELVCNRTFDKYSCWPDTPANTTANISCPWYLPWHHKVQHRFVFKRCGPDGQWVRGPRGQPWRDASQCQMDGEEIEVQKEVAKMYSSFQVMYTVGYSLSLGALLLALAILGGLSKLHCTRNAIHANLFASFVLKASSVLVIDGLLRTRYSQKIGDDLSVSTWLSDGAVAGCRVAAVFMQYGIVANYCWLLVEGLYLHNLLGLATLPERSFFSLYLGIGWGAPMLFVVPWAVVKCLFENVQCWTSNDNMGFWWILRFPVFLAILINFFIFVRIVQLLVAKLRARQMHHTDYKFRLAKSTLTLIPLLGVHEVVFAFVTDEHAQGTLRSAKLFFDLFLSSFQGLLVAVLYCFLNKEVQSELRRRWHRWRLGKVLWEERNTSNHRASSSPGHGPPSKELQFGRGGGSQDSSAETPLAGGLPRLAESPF

Binder | Assay (I) Glucagon [EC50]
HSQGTFTSDYSRYLDLRRAQDFVK([γGlu-γGlu-AEEA-AEEA-γGlu-C18 diacid])WLLIT | 1.67 nM
HSQGTFTSDYSRYLDARRAQDFVK([γGlu-γGlu-AEEA-AEEA-γGlu-C18 diacid])WLLST | 0.158 nM
HSQGTFTSDYSKYLESRRAQDFVK([γGlu-AEEA-AEEA-γGlu-C18 diacid])WLLNL | 1.9 nM
HSQGTFTSDVSKYLDTRRAQEFVK([γGlu-γGlu-AEEA-AEEA-γGlu-C18 diacid])WLLST | 0.139 nM
HSQGTFTSDYSRYLDLRRAQDFVK([AEEA-AEEA-γGlu-γGlu-γGlu-C18 diacid])WLLST | 0.1 nM
HSQGTFTSDYSRYLDTRRAQDFVK([γGlu-γGlu-AEEA-AEEA-γGlu-C18 diacid])WLLST | 0.297 nM
HSQGTFTSDYSRYLDTRRAQDFVK([γGlu-γGlu-AEEA-AEEA-γGlu-C18 diacid])WLLNT | 0.031 nM
HSQGTFTSDYSRYLDIRRAQDFVK([γGlu-γGlu-AEEA-AEEA-γGlu-C18 diacid])WLLST | 1.04 nM
HSQGTFTSDYSKYLESRRAQDFVK([γGlu-AEEA-AEEA-γGlu-C18 diacid])WLLNI | 1.12 nM
HSQGTFTSDYSRYLDLRRAQDFVK([γGlu-γGlu-AEEA-AEEA-γGlu-C20 diacid])WLLST | 1.07 nM
HSQGTFTSDYSKYLESRRAQDFVK([γGlu-AEEA-AEEA-γGlu-C18 diacid])WLLNV | 0.92 nM
HSQGTFTSDYSKYLDTRRAQEFVK([γGlu-AEEA-AEEA-γGlu-C18 diacid])WLLNL | 0.183 nM
HSQGTFTSDYSRYLDLRRAQDFVK([γGlu-γGlu-AEEA-AEEA-γGlu-C18 diacid])WLLST | 0.255 nM
HSQGTFTSDYSKYLDIRRAQDFVK([γGlu-γGlu-AEEA-AEEA-γGlu-C18 diacid])WLLST | 0.084 nM
HSQGTFTSDYSKYLDTRRAQEFVK([γGlu-AEEA-AEEA-γGlu-C18 diacid])WLLNV | 0.12 nM
HSQGTFTSDYSKYLDTRRAQEFVK([γGlu-γGlu-AEEA-AEEA-γGlu-C18 diacid])WLLST | 0.072 nM
HSQGTFTSDYSRYLDVRRAQDFVK([γGlu-γGlu-AEEA-AEEA-γGlu-C18 diacid])WLLST | 1.32 nM
HSQGTFTSDYSRYLDLRRAQDFVK([γGlu-AEEA-AEEA-γGlu-γGlu-C18 diacid])WLLST | 0.91 nM
HSQGTFTSDYSKYLDTRRAQDFVK([γGlu-γGlu-AEEA-AEEA-γGlu-C18 diacid])WLLST | 0.075 nM
